Legend:
[1] = target: T1, AthPEPCK1 Δ101 (Arabidopsis thaliana, UniProt Q9T074); experiment: activity with effector, decarboxylation direction; type: biochemical; details: allosteric activator; 0.5 mM OAA, 0.3 mM ATP
T1 sequence (Q9T074 102-671): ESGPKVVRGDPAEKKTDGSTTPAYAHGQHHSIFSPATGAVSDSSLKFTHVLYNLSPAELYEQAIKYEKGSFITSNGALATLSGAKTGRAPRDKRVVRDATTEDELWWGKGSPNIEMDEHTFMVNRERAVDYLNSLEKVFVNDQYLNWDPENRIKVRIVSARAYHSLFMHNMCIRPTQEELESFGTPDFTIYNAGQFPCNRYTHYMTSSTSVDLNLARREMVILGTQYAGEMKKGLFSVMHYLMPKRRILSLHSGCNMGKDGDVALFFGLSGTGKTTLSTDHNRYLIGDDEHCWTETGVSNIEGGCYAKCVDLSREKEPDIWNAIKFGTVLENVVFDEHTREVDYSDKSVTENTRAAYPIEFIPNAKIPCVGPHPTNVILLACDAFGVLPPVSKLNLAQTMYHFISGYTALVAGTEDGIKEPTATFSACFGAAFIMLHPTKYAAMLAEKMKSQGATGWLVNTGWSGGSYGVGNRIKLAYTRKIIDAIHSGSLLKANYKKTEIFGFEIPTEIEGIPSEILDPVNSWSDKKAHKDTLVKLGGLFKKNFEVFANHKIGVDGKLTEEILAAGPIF

[2] = target: T2, AthPEPCK1 WT (Arabidopsis thaliana, UniProt Q9T074); experiment: activity with effector, carboxylation direction; type: biochemical; details: allosteric activator; 10 mM PEP, 0.13 mM ADP
T2 sequence (Q9T074 2-671): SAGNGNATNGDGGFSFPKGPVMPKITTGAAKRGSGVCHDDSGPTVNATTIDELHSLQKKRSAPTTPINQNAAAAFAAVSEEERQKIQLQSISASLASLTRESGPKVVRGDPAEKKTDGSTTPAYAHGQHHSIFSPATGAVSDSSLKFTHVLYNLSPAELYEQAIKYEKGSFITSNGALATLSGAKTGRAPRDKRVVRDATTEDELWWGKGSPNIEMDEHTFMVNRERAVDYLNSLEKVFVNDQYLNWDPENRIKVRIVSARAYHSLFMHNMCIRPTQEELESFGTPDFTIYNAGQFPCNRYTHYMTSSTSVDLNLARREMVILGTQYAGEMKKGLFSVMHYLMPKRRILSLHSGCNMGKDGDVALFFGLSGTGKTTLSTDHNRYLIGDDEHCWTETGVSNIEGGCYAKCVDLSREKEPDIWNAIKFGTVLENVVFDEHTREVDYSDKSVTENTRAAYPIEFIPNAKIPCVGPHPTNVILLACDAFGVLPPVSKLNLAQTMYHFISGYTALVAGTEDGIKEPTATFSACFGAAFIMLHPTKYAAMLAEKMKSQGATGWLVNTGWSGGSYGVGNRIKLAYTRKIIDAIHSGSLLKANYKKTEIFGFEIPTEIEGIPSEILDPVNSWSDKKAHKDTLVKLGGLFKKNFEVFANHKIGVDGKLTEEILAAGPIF

[3] = substrate: Nc1ncnc2c1ncn2[C@@H]1O[C@H](COP(=O)(O)OP(=O)(O)O)[C@@H](O)[C@H]1O; experiment: steady-state kinetics, carboxylation direction; type: biochemical, Arabidopsis thaliana
[4] = substrate: Nc1ncnc2c1ncn2[C@@H]1O[C@H](COP(=O)(O)OP(=O)(O)OP(=O)(O)O)[C@@H](O)[C@H]1O; experiment: purified protein; details: 0.5 mM OAA

## O=P(O)(O)OC[C@H]1OC(O)[C@H](O)[C@@H](O)[C@@H]1O (stereo partly shown) [Glc6P]
[1]
  fold activation: 2 fold

## O=C(O)C[C@H](O)C(=O)O [malate]
[2]
  fold activation: 2 fold

B1: AthPEPCK1 Δ101 (Arabidopsis thaliana) (protein)
chain: T1 sequence (Q9T074 102-671)
[3]; 15 mM PEP
  Km: 57 ± 6 µM
  kcat: 3.01 ± 0.08 s⁻¹
[4]
  Km: 80 ± 10 µM
  kcat: 3.9 ± 0.2 s⁻¹

B2: AthPEPCK1 Δ19 (Arabidopsis thaliana) (protein)
chain: GPVMPKITTGAAKRGSGVCHDDSGPTVNATTIDELHSLQKKRSAPTTPINQNAAAAFAAVSEEERQKIQLQSISASLASLTRESGPKVVRGDPAEKKTDGSTTPAYAHGQHHSIFSPATGAVSDSSLKFTHVLYNLSPAELYEQAIKYEKGSFITSNGALATLSGAKTGRAPRDKRVVRDATTEDELWWGKGSPNIEMDEHTFMVNRERAVDYLNSLEKVFVNDQYLNWDPENRIKVRIVSARAYHSLFMHNMCIRPTQEELESFGTPDFTIYNAGQFPCNRYTHYMTSSTSVDLNLARREMVILGTQYAGEMKKGLFSVMHYLMPKRRILSLHSGCNMGKDGDVALFFGLSGTGKTTLSTDHNRYLIGDDEHCWTETGVSNIEGGCYAKCVDLSREKEPDIWNAIKFGTVLENVVFDEHTREVDYSDKSVTENTRAAYPIEFIPNAKIPCVGPHPTNVILLACDAFGVLPPVSKLNLAQTMYHFISGYTALVAGTEDGIKEPTATFSACFGAAFIMLHPTKYAAMLAEKMKSQGATGWLVNTGWSGGSYGVGNRIKLAYTRKIIDAIHSGSLLKANYKKTEIFGFEIPTEIEGIPSEILDPVNSWSDKKAHKDTLVKLGGLFKKNFEVFANHKIGVDGKLTEEILAAGPIF
[3]; 5 mM PEP
  Km: 40 ± 1 µM
  kcat: 2.64 ± 0.06 s⁻¹
[4]
  Km: 29 ± 6 µM
  kcat: 3.38 ± 0.06 s⁻¹
